Assay: soluble on expression in E. coli; label from the status in PepcDB or PDB records

MSLARKKRNPDAEKLAESILNAYQPESVDDMQDALKDVFGPLFEKMLQGELNNHLGYDAHSKEPKEHDNRRNGYGTKTLKTSFGEVAIDVPRDREASFEPELIPKRKRDVSDIEGKVLSMYARGMSQRDIAATVEAIYGFDISHEMISDITDAVLPELEEWQARPLAKCYAFLFVDCMYVTLRENYEAKEYAVYTILGYDLKGNKEILGLWLNQTESKNRWMQVFDELKARGVEDVFFISMDGVSGLEEGAKAIFPSVIVQRCIVHLVRNALRYIPSKDYKEVCRDMKKFYGASSLNAAHAAFGSFQNRWSHYSGAVDVWKRNFAHVEQLFDYGSAIRKIMYTTNAVESVHSSFRKVTKKGAFSNENALLKLLYLRTKELHAKWSGGRIQNWAMVLKQLMINETFSSRMKSMRFTFRNNGRFIQLCVRSKEGHHHHHH
soluble on expression in E. coli: soluble

MGSDKIHHHHHHASCDKFDEINTDPDATTKVTSSLLATGLLLDITSSSASKSFIYDELLAKQMAWGESMEDYQYNVFGRSGFGGYTTLINAQKMVESVSDDNVNAYDGLAHFIKAYKIFYMSMEMGDLPYEEALQGELGLVRPKYNTQKEVMNFILSDLETAYELFSTAKDFDGDPILGGSISKWKKATTAFQLKVLMHLSKKESDADLKVKERFARIVASGSLMESNEDNLQMKYADKANTVYPFHNTNTKHAGYAMLSTMLIDKFKATGDIRMFYYAKPAKAKLNEGVTADSWDAYIGTDPSLPFEQIEKAYATEQYSGFNARYTDYPSGEPVVRLGYAEQNFILAEAAVRGWISGDASAYYKKAIRAHMEFIASNTPDEEVYHHGHPITEEAIAAFLETPAIQLSGEKEEDIEKILTQRYLASFMQHPYDVYYDYRRTGYPVLPINPATNRNTMNDRLPMRWMYPKSESDYNLEHQNEALERQFGGVDDVNKLMWILQ
soluble on expression in E. coli: not soluble

MGHHHHHHSHMEKRKPTIQNIEVSDHTAELSLRVDADILDFQGHFSHFPLLPGVTQIDWALFYAVQYLNTPKVFKGMEVIKFQEPILPNADVCLSLSWDNEREKLTFKYTSKNGETLVTHSSGKMKLGESRE
soluble on expression in E. coli: soluble

MSKLEAILSQEVEAEIQALLQEAEAKAEAVKREAEEKAKALLQARERALEAQYRAALRRAESAGELLVATARTQARGEVLEEVRRRVREALEALPQKPEWPEVVRKLALEALEALPGAKALVANPEDLPHLEAMARERGVELQAEPALRLGVRAVGAEGKTQVENSLLARMDRAWDAMSSKVAQALWG
soluble on expression in E. coli: soluble

MQSWYLLYCKRGQLQRAQEHLERQAVNCLAPMITLEKIVRGKRTAVSEPLFPNYLFVEFDPEVIHTTTINATRGVSHFVRFGASPAIVPSAVIHQLSVYKPKDIVDPATPYPGDKVIITEGAFEGFQAIFTEPDGEARSMLLLNLINKEIKHSVKNTEFRKL
soluble on expression in E. coli: soluble

MQAGPALMSEVASRELRNDTAGVLRRVRAGEDVTITVSGRPVAVLTPVRPRRRRWLSKTEFLSRLRGAQADPGLRNDLAVLAGDTTEDLGPIR
soluble on expression in E. coli: soluble

MSKKIRTEAVDYLFDAILSLKDKEECYTFFEDICTINELLSLSQRFEVAKMLREQKTYLEIAEKTGASTATISRVNRSLNYGNDGYDMVFERMEK
soluble on expression in E. coli: not soluble

MSTQEDFLKRLESVTSRLEAIAGQKPALAPKPTNLGGPSAYSLHFFFALQFYFSSSPPTSTMDSLYYSAPRPFNKYPRGYRPVTDSTQDLRSFGGGLRPSSSWSSFPQQVVIDQRSATLPHFPSSCVSPVSPTSPVDRNTNYWTAEEPPRSRRPIRSESNSTLFDNNFSPRELSPLSVASEYCNNPQPASMYGHRSVQSPVPAFQDAPPRGYDNVPPPQSYKQPTHPSPSQRETDFLRNLQRQKAEAHNMSSSWYAGDQSSRQTDFGTLPSPQHYNSNSSDHHPPRRLAKTQSDLSFDSLNNTYFNNTSNHTPSNTFLNHSTVDSHNNSSGQLHNSINNYTASTNGNQGHRLDGFFRNRVIEPNWMTDPPPPKSFREDYIIRNAPLNSNLNSDFERFRLEPTYREPRGNSLVSEQPNFRSYHNDEPTQEQPNPRYQRSSSNFMQQRDPSPVRSPPIISYAQQSNPFSFPNPINQVNYNQEDHSSRVSTGGYQDRRVAQAPKEATTNVYQNVPAAAAVNFREKERPTSQYLESNRNSAAFPNEPIKLTNDRVLRIHPHQQVQDQYHHHQMPEEPHYPQPHQPIQQSQRARIQSPLRDFARLTSPIREVAPQPYHPPQAQNQNQNPERIFSPVESKVFNRSGPTVINGFTSNRHTYNSHTDDFDSRNRRDSSQPPVAIIEPNINVHMPSDPMPYNKPHFGHGHGHSNGNNNVHSVKPTSHYSNPTFSPTSTFSPNSNYDNDNDSDLDIEEMARRALPRYLRDNEKTGRHRNLYGDNLHGILIKNPSLHRSSSKKVVFIDQNKASAAASAGDSGEVPAHVRAYDDAIEEPLANWSKLTDQLGGDLAAVKPKVLAMFASMRNYLWSAAGKSEPSAEEAQKMLTPVINLLGEINNFKDTKRKTPHWNHLNSVAEALPALGWVTVKKTPAPYVKEFIEAAQFYINPILREFKETDPRHVEWTKAWKAVFEEMQKFVRQVHTTGLVWNSAPGAAPDASASAPSAAAPSAPKAPAGPGGPPPPPPPPPADFFANIAPPPVDADKASRDALFASLNQGEGVTSRLKKVTADMQTHKNPNLRGTAVVPAAGASQGGSSPAKPAAPVRKPPHKELENGKQWIVEYFVNDPNIVLDVADKKQTVYIYRCENSVIKVNGKANSITLDGCKKTSVVFDALVAQCETVNCQSVQIQTLGELPTLSIQKTDGCQVYLSKVAQGCEIVTSKSSEMNISVQTNDDGDYSEFPVPEQFKTTFVNGKLVTVVSDIC
soluble on expression in E. coli: not soluble

MEMTSAFTLNVRLDNIAVITIDVPGEKMNTLKAEFASQVRAIIKQLRENKELRGVVFVSAKPDNFIAGADINMIGNCKTAQEAEALARQGQQLMAEIHALPIQVIAAIHGACLGGGLELALACHGRVCTDDPKTVLGLPEVQLGLLPGSGGTQRLPRLIGVSTALEMILTGKQLRAKQALKLGLVDDVVPHSILLEAAVELAKKERPSSRPLPVRERILAGPLGRALLFKMVGKKTEHKTQGNYPATERILEVVETGLAQGTSSGYDAEARAFGELAMTPQSQALRSIFFASTDVKKDPGSDAPPAPLNSVGILGGGLMGGGIAYVTACKAGIPVRIKDINPQGINHALKYSWDQLEGKVRRRHLKASERDKQLALISGTTDYRGFAHRDLIIEAVFENLELKQQMVAEVEQNCAAHTIFASNTSSLPIGDIAAHATRPEQVIGLHFFSPVEKMPLVEIIPHAGTSAQTIATTVKLAKKQGKTPIVVRDKAGFYVNRILAPYINEAIRMLTQGERVEHIDAALVKFGFPVGPIQLLDEVGIDTGTKIIPVLEAAYGERFSAPANVVSSILNDDRKGRKNGRGFYLYGQKGRKSKKQVDPAIYPLIGTQGQGRISAPQVAERCVMLMLNEAVRCVDEQVIRSVRDGDIGAVFGIGFPPFLGGPFRYIDSLGAGEVVAIMQRLATQYGSRFTPCERLVEMGARGESFWKTTATDLQ
soluble on expression in E. coli: soluble

MGSDKIHHHHHHMEAKKSKAIVFSGVNQIELREVTLKPVSSTDVLVETWWSSISTGTEKMALNGLIPSPPFIFPFIPGYETVGRIVEAGDHVNQGLIGKFAYVAGSFGYEDVNAAFGGASQFIVCPVESLTVLDGIANPQCGIALPLGATALHIVDLAEVKNRKVLVLGQGAVGILAAELAKRFGASLVAVTEPHQRRLDISTSDIKVNPEKQDVSVALAGHEFDVLIDSTGIMSAIETGLRFLKFHGKVIFGGYYQRMNIDYSQAFNKELSFIAARQWAKGDLHRVRELIAAGKINAEKIFTHQCTVDDNLMEAYMQAFSDSDCLKMIIHWKHGNEAGEHFPTCNTAN
soluble on expression in E. coli: not soluble

MIIVRLCGGLGNQMFQYAAGLAAAHRIGSEVKFDTHWFDATCLHQGLELRRVFGLELPEPSSKDLRKVLGACVHPAVRRLLSRRLLRALRPKSLVIQPHFHYWTGFEHLTDNVYLEGYWQSERYFSNIADIIRQQFRFVEPLDPHNAALMDEMQSGVSVSLHIRRGDYFNNPQMRRVHGVDLSEYYPAAVATMIEKTNAERFYVFSDDPQWVLEHLKLPVSYTVVDHNRGAASYRDMQLMSACRHHIIANSTFSWWGAWLNPRPDKVVIAPRHWFNVDVFDTRDLYCPEWIVLLEHHHHHH
soluble on expression in E. coli: soluble

TKDFEWKTTVTASHNANKLLSLSNDLYETSNQIDHAYLGEPINLSTQRMEVGRSMGQFYGMKSVGVSENGLWMVENTKTGEIEEFTDNMLSNDDYRQYLGNALPKLYLGWNNSFRYKNFDLSFQMTGQFGFKILNEPRAYYENNSIAYNRLKSVQKAPYGGQYTLSTAQKQTFVSYYLEDGDFLKMTNITLGYNIPLKSSKFVKNIRAYVSADNLFCITGYDGLDPEMSNGDIWSLGIDWRDKYPSTRSFTFGLNVSF
soluble on expression in E. coli: not soluble

MADSEADKPLRKISAAFKKLAIIVNSPNPEVPVTQFSHACSLVSPLFGCLGIAFKFAEMDYVAKVDDLVRASSSISTLVVMMDKDIEADCVRKAGSHTRNLLRVKRGLDMVKVLFEQIIASEGDNSLKDPATKSYAQVFAPHHGWAIRKAVSLGMYALPTRAHLLNMLKEDEAAAKIHMQSYVNSSAPLITYLDNLFLSKQLGIDW
soluble on expression in E. coli: not soluble

MSLPANKLVFVGGMGAGKTTAVRAISDVEPVSTEMPLSQDAYGDKTYTTVALDYSSIELEDGELLHVYGVPGQKYLDFMWPLVCDGALGVIVLTSARDTQMRDTTLELLREFSRITPEASLAVGVTMTDEVQEFLLPPFREALVAEGFRIPVMRVDARSATQITFLVKTLLSYRYTSAPVLEHHHHHH
soluble on expression in E. coli: soluble

MGSDKIHHHHHHGADFVKGDRTFAADAELGATVTTGNTETTSLKGRLDMKHELGNWENQYLLEALYKEDSGEETGKRYYGLVQGNYKFSDVNYMFANANHEIDPFTGFDSKSTISAGYGHKFVDTEKTTFAVEVGPGFQYKRLDDESAAEAGYDTEESWVAHGVMNFETEITDNSKFKQLFVADYGESLEGRSETSITANIVGALAMKFAVIVRYNSEPLDNKKSTDTETNMTLLYSF
soluble on expression in E. coli: not soluble

MGHHHHHHSHMVAWKRQLILFGGFHESTRDYIYYNDVYAFNLDTFTWSKLSPSGTGPTPRSGCQMSVTPQGGIVVYGGYSKQRVKKDVDKGTRHSDMFLLKPEDGREDKWVWTRMNPSGVKPTPRSGFSVAMAPNHQTLFFGGVCDEEEEESLSGEFFNDLYFYDATRNRWFEGQLKKLRSGWRRRTRKRTVRRLRAPRVGSTTKTAERRAVRRTESPCQGRLASAVPTSAQDPAVLSEALGASVRPDAQERAEGGWPRPGCELSPMV
soluble on expression in E. coli: not soluble

SLHGELDKIYETLALAERRGPGPVDLLLCCGDFQAVRNEADLRCMAVPPKYRHMQTFYRYYSGEKKAPVLTLFIGGNHEASNHLQELPYGGWVAPNIYYLGLAGVVKYRGVRIGGISGIFKSHDYRKGHFECPPYNSSTIRSIYHVRNIEVYKLKQLKQPIDIFLSHDWPRSIYHYGNKKQLLKTKSFFRQEVENNTLGSPAASELLEHLKPTYWFSAHLHVKFAALMQHQAKDKGQTARATKFLALDKCLPHRDFLQILEIEHDPSAPDYLEYDIEWLTILRATDDLINVTGRLWNMPENNGLHARWDYSATEEGMKEVLEKLNHDLKVPCNFSVTAACYDPSKPQT
soluble on expression in E. coli: not soluble

MIYPYNSTISLGTVSLNVTDLAKMTTFYTSIIGLQVLSQDTTSRQLTTDGKTVILELRQTPLPGDKAYGLYHTAFLVPDRHSLGLVLNHFLTRSISLEGAADHGHSEAIYLSDPEGNGIEIYHDKAVEHWDIRDNGQIIGVTEPTDTKSILEQLTDIPKHFLLAQDTRIRHVHLSVKNALASSLLYQKVFDLGDKMTIPSASWIASGNYYHHLAFNHWSAPYLKKHQEGAPGLAFLTIHIETPLLFSATLKKARLHGLAILQEDSSSFTTEDEEGIRVNVILGQD
soluble on expression in E. coli: not soluble

MKVSTKDKIIESAVMLFNQKGFSGTSVREIAKSADVNVAHISYYFKGKGGLMEHLVSEFYEGYSKTLETAASNISTQSTQEQLLQLVFDILSYQHNHRQLTRFVYREVTIDSTLIREIMSTYLMKEKYIFQLIIEEGEKQREYLTLPLPHFILQLKSLLMMPYLQPQYISEVLYMQPHEPYFYKMYFEEIKIWIRSVFRTGDVALTN
soluble on expression in E. coli: not soluble

Reference: the DeepSol protein solubility set
